Consider 13 molecules from patent publication US5989519A, “Technetium-99m labeled peptides for imaging inflammation” (Diatide, Inc., priority 1994, dated 1999).

Numbered stars: 1 amine (or outer) side, 2 acyl side, 3 side chain; on linkers, the order of the positions; unused ones are H or OH. Square brackets hold non-standard residues; d marks the D form. Ends that are not written are not given here. Peptide text beside a SMILES is read from it. * marks the point of attachment. BAT = N6,N9-bis(2-methyl-2-mercaptopropyl)-6,9-diazanonanoic acid (chelator), CC(C)(S)CNCCN(CCCCC(=O)*)CC(C)(C)S; C(Acm) = CC(=O)NCSC[C@H](N[*:1])C(=O)[*:2]; X1 = CC(C)(S)CNCCN(CCCCC(=O)*)CC(C)(C)S; pGlu = O=C1CC[C@@H](C(=O)O)N1; Picolinoyl = O=C(c1ccccn1)*; Acm = CC(=O)NC*; For = O=C*

One series deals with infected muscle tissue. Description: in vivo. More on the design: species or system New Zealand white rabbits. To be noted: rabbit; for Blood (% ID/g) / Control Muscle (% ID/g): iv. As to the method: (§1) After 24 h, the animals were sedated by i.m. injection of ketamine and xylazine, and then injected i.v. with Tc-99m labeled peptide (≤150 μg, 2-10 mCi). The animals were positioned supine in the field of view of a gamma camera (LEAP colimator/photopeaked for Tc-99m) and imaged over the first hour post-injection, and then at approximately 1 h intervals over the next three hours post injection. Animals were allowed to recover between image acquisitions and re-anesthetized as needed.
(§2) Upon completion of the final imaging, each animal was sacrificed by overdose of phenobarbital i.v. and dissected to obtain samples of blood and of infected and control muscle tissue. The tissue samples were weighed, and along with a standard amount of the injected dose, were counted using a gamma counter, and the percent injected dose (per gram of tissue) remaining in the tissues was determined. Ratios of percent of injected dose per gram of infected versus non-infected muscle tissue, and of infected muscle tissue versus blood, were calculated for each peptide. Scintiphotos of whole body and leg images of a rabbit injected with a Tc-99m labeled reagent of the invention, having the formula

A further series is described as follows: in vivo. To be noted: rabbit, iv. More on the design: species or system New Zealand white rabbits. As to the method: as §1, §2
Setting [1] is: New Zealand white, total radioactivity, Blood (% ID/g).
Where [2] appears, read: New Zealand white, total radioactivity, Control Muscle (% ID/g).

On to “[BAT].(VPGVG)4 amide ({BAT}-VPGVGVPGVGVPGVGVPGVG-NH2; also: Tc-99m label)”, for which, in the series on infected muscle tissue, the “Ratio of Infected/Blood” value is reported as 1.68, the “Ratio of Infected/Control” value was determined as 5.33, the “Blood (% ID/g)” value came to 0.002 % ID/g and the “Control Muscle (% ID/g)” value stood at 0.0006 % ID/g.

As usually defined, the tissue uptake is the percentage of the injected dose found per gram of tissue. Consider `CCCC(CCC)(NC(=O)[C@H](CCSC)NC=O)C(=O)N[C@@H](Cc1ccccc1)C(=O)NCCCCCN(CCNCC(C)(C)S)CC(C)(C)S` [formyl.M.Dpg.F.[BAM], formyl.M.DpgF.[BAM]], for which the “Ratio of Infected/Blood” value in the series with infected muscle tissue amounted to 3.53. For the same molecule, the “Ratio of Infected/Control” value in the series on infected muscle tissue came out at 15.14. The tissue uptake is 0.003 %ID/g in “in vivo” (setting [1]) and 0.0007 %ID/g in “in vivo” (setting [2]).

For the molecule “Pic.GC(VGVAPG)3 amide (Picolinoyl-GCVGVAPGVGVAPGVGVAPG-NH2; numbers in words are those of the source; also: Tc-99m label) [PicGC(VGVAPG)3 amide]”, in the series on infected muscle tissue, the “Ratio of Infected/Blood” value is 0.69, the “Ratio of Infected/Control” value came out at 5.58, the “Blood (% ID/g)” value was 0.015 % ID/g and the “Control Muscle (% ID/g)” value amounted to 0.0019 % ID/g.

In the case of “CAcm GCAcm TKPR (C(Acm)GC(Acm)TKPR; also: Tc-99m label)”, in the series with infected muscle tissue, the “Ratio of Infected/Blood” value is 2.07, the “Ratio of Infected/Control” value is listed as 2.40, the “Blood (% ID/g)” value is 0.003 % ID/g and the “Control Muscle (% ID/g)” value turned out to be 0.0025 % ID/g.

With “[BAT].GGPLYKKIIKKLLES ({BAT}-GGPLYKKIIKKLLES; also: Tc-99m label)”, in the series on infected muscle tissue, the “Ratio of Infected/Blood” value worked out at 0.50, the “Ratio of Infected/Control” value is on record as 7.00, the “Blood (% ID/g)” value came out at 0.004 % ID/g and the “Control Muscle (% ID/g)” value stood at 0.0003 % ID/g.

For “CAcm GCAcm (VGVAPG)3 amide (C(Acm)GC(Acm)VGVAPGVGVAPGVGVAPG-NH2; also: Tc-99m label)”, in the series with infected muscle tissue, the “Ratio of Infected/Blood” value came to 1.69, the “Ratio of Infected/Control” value is given as 3.94, the “Blood (% ID/g)” value amounted to 0.011 % ID/g and the “Control Muscle (% ID/g)” value amounted to 0.0017 % ID/g.

In the case of `CSCC[C@H](NC=O)C(=O)N[C@@H](CC(C)C)C(=O)N[C@@H](Cc1ccccc1)C(=O)N[C@@H](CCCCNC(=O)CCCCN(CCNCC(C)(C)S)CC(C)(C)S)C(N)=O` (99mTc complex, metal not drawn) [formyl.MLFK.[BAT]amide, formyl.MLFK.[BAT].amide] (For-MLFK(X1)-NH2), the “Ratio of Infected/Blood” value in the series with infected muscle tissue came out at 3.58. Also, in the series on infected muscle tissue, the “Ratio of Infected/Control” value came to 7.68. Besides, the results for the tissue uptake in the series “in vivo” (Blood (% ID/g)) and in “in vivo” (Control Muscle (% ID/g)) were 0.006 %ID/g and 0.0028 %ID/g, respectively.

With “acetyl.CGGGPLYKKIIKKLLES (Ac-CGGGPLYKKIIKKLLES) [Ac.CGGGPLYKKIIKKLLES]”, in the series on infected muscle tissue, the “Ratio of Infected/Blood” value is reported as 0.74, the “Ratio of Infected/Control” value came out at 4.70, the “Blood (% ID/g)” value is 0.032 % ID/g and the “Control Muscle (% ID/g)” value is 0.0050 % ID/g.

On to “acetyl.CAcm GCAcm GGG(VPGVG)4 amide (Ac-C(Acm)GC(Acm)GGGVPGVGVPGVGVPGVGVPGVG-NH2; also: Tc-99m label) [Ac.CAcm GCAcm GGG(VPGVG)4 amide]”, for which, in the series with infected muscle tissue, the “Ratio of Infected/Blood” value came to 0.63, the “Ratio of Infected/Control” value came out at 3.97, the “Blood (% ID/g)” value is reported as 0.049 % ID/g and the “Control Muscle (% ID/g)” value is 0.0077 % ID/g.

Regarding “acetyl.KKKKKCAcm GCAcm GGPLYKKIIKKLLES (Ac-KKKKKC(Acm)GC(Acm)GGPLYKKIIKKLLES; also: Tc-99m label) [Ac.KKKKKCAcm GCAcm GGPLYKKIIKKLLES]”, in the series on infected muscle tissue, the “Ratio of Infected/Blood” value is 0.93, the “Ratio of Infected/Control” value turned out to be 5.60, the “Blood (% ID/g)” value amounted to 0.006 % ID/g and the “Control Muscle (% ID/g)” value came out at 0.0019 % ID/g.

As for `CC(C)C[C@H](NC(=O)C1(NC=O)CCSCC1)C(=O)N[C@@H](Cc1ccccc1)C(=O)NCCCCCN(CCNCC(C)(C)S)CC(C)(C)S` [formyl.Thp.LF.[BAM]], in the series with infected muscle tissue, the “Ratio of Infected/Blood” value came out at 0.83 and the “Ratio of Infected/Control” value was determined as 4.80. In addition, the tissue uptake in “in vivo” (setting [1]) was found to be 0.006 %ID/g. The tissue uptake in the series “in vivo” (setting [2]) was determined as 0.001 %ID/g.

For “pGlu.GVNDNEEGFFSARCAcm GCAcm amide ([pGlu]GVNDNEEGFFSARC(Acm)GC(Acm)-NH2; also: Tc-99m label)”, in the series on infected muscle tissue, the “Ratio of Infected/Blood” value came to 0.68, the “Ratio of Infected/Control” value came out at 5.68, the “Blood (% ID/g)” value is 0.024 % ID/g and the “Control Muscle (% ID/g)” value came out at 0.0029 % ID/g.

Take “(acetyl.CCAcm GCAcm PLYKKIIKKLLES)2.BSME ({Ac-Cys-C(Acm)-Gly-C(Acm)}-PLYKKIIKKLLES; also: dimer via BSME, Tc-99m label) [(Ac.CCAcm GCAcm PLYKKIIKKLLES)2 BSME]”: in the series on infected muscle tissue, the “Ratio of Infected/Blood” value worked out at 0.84, the “Ratio of Infected/Control” value was found to be 7.45, the “Blood (% ID/g)” value is reported as 0.010 % ID/g and the “Control Muscle (% ID/g)” value turned out to be 0.0011 % ID/g.
